These results are taken from PMC10984984, “Loss-of-function mutation in PRMT9 causes abnormal synapse development by dysregulation of RNA alternative splicing”.

The target in this series is T1, SF3B2 peptide R508me0 (unmodified) (UniProt Q13435).
T1 chain: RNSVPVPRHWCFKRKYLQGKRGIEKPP
In words: EMSA; R508me0; RNA 1 uM, peptide 1.4-140 uM; 20 mM Tris-HCl pH 8.0, 150 mM NaCl, 1.5 mM MgCl2, 0.5 mM EDTA, 100 U/mL RNasin, room temperature, 20 min; 6% native gel in 0.5x TBE. The conditions noted are these: label: 5' 6-FAM. (In general: In EMSA bound probe runs differently from free probe, usually more slowly.)

Consider CAUAGAAAAAAGUUAAGUUAA (ssRNA) [Stag2 upstream probe A (nonconsensus anchoring site)], for which the binding result was “binds”.
Then UAAUAGUCAUGCCUUGGUUCA (ssRNA) [Stag2 downstream probe B (consensus anchoring site)], with “binds”.
